The values below come from publication PMC4831018.

Assay [1] has as its target TgVps29-cMyc (Toxoplasma gondii). Nature of the assay: affinity purification with mass spectrometry; absolute quantification of TgVps35, TgVps26 and TgVps29 in the immunoprecipitates by microLC-SRM with stable isotope-labelled standard peptides, three proteotypic peptides per protein.
Assay [2] deals with TgVps26-HA (Toxoplasma gondii). The assay is described as above.

As to TgVps35-HA (natural protein), the stoichiometry N (TgVps35 per TgVps29) in assay [1] came to 3. Besides, the stoichiometry N (TgVps35 per TgVps26) in assay [2] was determined as 1.
